Data on 167 variants can be found in the Human Domainome abundance scans (Beltran et al. 2025).

The labels stand for the following.
B1: Connector enhancer of kinase suppressor of ras 2, residues 9 to 71; numbered along this chain, Q8WXI2 (parent)
chain: SKWSPSQVVDWMKGLDDCLQQYIKNFEREKISGDQLLRITHQELEDLGVSRIGHQELILEAVD

± gives the uncertainty stated by the source.

The variants in the data set derive from B1. The data set can be described thus: abundance fitness (aPCA) (normalised: wild type 0, dead -1); higher = more abundant; growth selection in yeast, the domain comes from the species named. Particulars: Homo sapiens.
P5N: the abundance fitness is 0.005 ± 0.041.
As to P5Q, the abundance fitness was -0.315 ± 0.058.
Turning to P5W, the abundance fitness was -0.095 ± 0.044.
The result for P5D reads -0.275 ± 0.049; that for P5T, 0.043 ± 0.03; that for L44A, -0.814 ± 0.046.
Consider L44S, for which the abundance fitness is -0.784 ± 0.039.
Turning to R38A, the abundance fitness was -0.031 ± 0.04.
To R38Y belongs -0.446 ± 0.093; to R38W, -0.549 ± 0.038.
Take H41Q: the abundance fitness was -0.037 ± 0.033.
The result for H41G reads -0.077 ± 0.025; that for H41M, -0.125 ± 0.047.
As for H41P, the abundance fitness is -0.002 ± 0.033.
The result for H41N reads -0.097 ± 0.04.
On to H41T, for which the abundance fitness was -0.031 ± 0.033.
To L15A belongs -0.652 ± 0.034; to L15G, -0.675 ± 0.044.
With L15E, the abundance fitness was -0.371 ± 0.027.
For L15V, the abundance fitness was -0.42 ± 0.027.
Take L15D: the abundance fitness was -0.702 ± 0.05.
As for G14Y, the abundance fitness was -1.04 ± 0.11.
In the case of E56P, the abundance fitness is -0.728 ± 0.063.
To K2G belongs -0.059 ± 0.041; to K2L, -0.041 ± 0.038; to S6M, -0.043 ± 0.031.
To S6R belongs -0.043 ± 0.024; to S6H, -0.04 ± 0.044; to S6Y, -0.166 ± 0.034.
Consider S6F, for which the abundance fitness was -0.287 ± 0.038.
On to S6P, for which the abundance fitness was -0.328 ± 0.038.
Take S32L: the abundance fitness was -0.706 ± 0.039.
For the variant R28M, the abundance fitness is -0.094 ± 0.03.
On to Q35P, for which the abundance fitness is -0.903 ± 0.074.
On to Q35W, for which the abundance fitness is -0.523 ± 0.055.
To L47I belongs 0.003 ± 0.064; to Q55I, -0.281 ± 0.042; to Q55A, -0.296 ± 0.03.
Take Q55E: the abundance fitness was -0.954 ± 0.097.
The result for E45K reads 0.021 ± 0.042.
For the variant E45Q, the abundance fitness is -0.007 ± 0.047.
Turning to L59R, the abundance fitness is -0.363 ± 0.028.
The result for L59M reads -0.032 ± 0.039; that for G33Y, -0.257 ± 0.039; that for G33Q, -0.559 ± 0.051.
To G33D belongs -0.906 ± 0.067.
The result for R51T reads 0.063 ± 0.027.
As to R51A, the abundance fitness turned out to be 0.031 ± 0.026.
On to R51Q, for which the abundance fitness amounted to 0.071 ± 0.035.
The result for R51G reads -0.083 ± 0.026; that for I31Y, -0.948 ± 0.25; that for V9W, -0.863 ± 0.049.
Take V9C: the abundance fitness was -0.054 ± 0.039.
The result for V9E reads -0.374 ± 0.036.
In the case of Q7S, the abundance fitness is -0.45 ± 0.033.
Turning to Q7T, the abundance fitness was -0.488 ± 0.035.
Turning to Q7N, the abundance fitness is -0.331 ± 0.049.
To D10E belongs 0.096 ± 0.029; to L37W, -0.349 ± 0.045.
Take L37K: the abundance fitness was -0.132 ± 0.047.
In the case of E27N, the abundance fitness was -0.535 ± 0.047.
The result for E27L reads -0.207 ± 0.03; that for E27Y, -0.316 ± 0.079; that for E43S, -0.137 ± 0.026.
Consider E43F, for which the abundance fitness is -0.455 ± 0.042.
To Y22S belongs -0.742 ± 0.043.
The result for Y22G reads -0.702 ± 0.027; that for Y22D, -0.571 ± 0.037; that for C18S, -0.024 ± 0.022.
To C18Q belongs -0.124 ± 0.039; to C18W, -0.991 ± 0.069.
For the variant T40V, the abundance fitness was -0.877 ± 0.04.
To T40E belongs -0.548 ± 0.038.
The result for T40C reads -0.426 ± 0.04.
In the case of D63Q, the abundance fitness was -0.039 ± 0.24.
D63E: the abundance fitness is -0.012 ± 0.045.
To V62E belongs -0.63 ± 0.11.
To V62N belongs -0.815 ± 0.057; to V62S, -0.741 ± 0.048; to V62L, -0.258 ± 0.037.
For L19T, the abundance fitness is -0.508 ± 0.036.
The result for L19W reads -0.936 ± 0.06.
Take L19F: the abundance fitness was -0.548 ± 0.052.
To D17E belongs -0.018 ± 0.037; to D17C, -0.06 ± 0.063; to D17R, -0.184 ± 0.025.
Consider M12Q, for which the abundance fitness was -1.06 ± 0.087.
The result for M12K reads -0.827 ± 0.095; that for M12S, -0.8 ± 0.051; that for M12F, -0.096 ± 0.035.
G48L: the abundance fitness is -0.991 ± 0.055.
Regarding G48P, the abundance fitness is -0.704 ± 0.11.
The result for I58P reads -0.671 ± 0.085; that for I58K, -0.727 ± 0.12; that for I58F, -0.033 ± 0.085.
To I58T belongs -0.688 ± 0.11.
As for F26A, the abundance fitness was -0.824 ± 0.041.
Regarding F26M, the abundance fitness is -0.709 ± 0.062.
Turning to F26N, the abundance fitness is -0.893 ± 0.13.
Turning to F26K, the abundance fitness is -0.852 ± 0.027.
To G53Q belongs 0.061 ± 0.034; to G53C, -0.05 ± 0.036; to I39E, -0.607 ± 0.048.
To I39H belongs -0.65 ± 0.071.
As for I39N, the abundance fitness is -0.67 ± 0.053.
In the case of I39Q, the abundance fitness is -0.653 ± 0.032.
To I39A belongs -0.424 ± 0.04.
As for I39K, the abundance fitness is -0.576 ± 0.047.
With K30Y, the abundance fitness is -0.391 ± 0.053.
The result for K30G reads -0.048 ± 0.026; that for V8T, -0.523 ± 0.033; that for V8N, -0.973 ± 0.069.
Regarding Q42T, the abundance fitness was -0.118 ± 0.028.
The result for S50R reads -0.05 ± 0.076; that for S50G, -0.258 ± 0.09.
To S50P belongs -0.391 ± 0.088.
S4I: the abundance fitness was -0.567 ± 0.088.
To S4C belongs -0.183 ± 0.047; to S4G, -0.128 ± 0.025; to D46E, -0.013 ± 0.032.
The result for D46M reads -0.042 ± 0.04.
The result for D46R reads 0.027 ± 0.023; that for D46Q, -0.032 ± 0.048; that for L36Y, -1.01 ± 0.086.
In the case of L36D, the abundance fitness was -0.847 ± 0.048.
For the variant L36A, the abundance fitness was -0.958 ± 0.056.
The result for L36I reads -0.325 ± 0.041.
To I52V belongs 0.002 ± 0.038; to I52P, 0.038 ± 0.034; to V49N, -1.1 ± 0.13.
For the variant V49K, the abundance fitness is -0.925 ± 0.037.
The result for W11K reads -0.564 ± 0.046; that for W11E, -0.59 ± 0.06.
Consider W11D, for which the abundance fitness is -0.65 ± 0.055.
To S1C belongs -0.07 ± 0.048; to S1P, -0.653 ± 0.068; to N25H, -0.055 ± 0.046.
Take N25K: the abundance fitness is -0.258 ± 0.039.
For N25D, the abundance fitness was -0.08 ± 0.047.
The result for D34S reads -0.06 ± 0.027; that for D34G, -0.109 ± 0.03; that for W3T, -1.05 ± 0.26.
Consider W3L, for which the abundance fitness is -0.236 ± 0.048.
Regarding W3E, the abundance fitness is -0.725 ± 0.15.
The result for W3A reads -0.653 ± 0.085; that for Q21V, -0.072 ± 0.024; that for Q21R, -0.144 ± 0.026.
The result for L57H reads -0.482 ± 0.057; that for L57I, -0.242 ± 0.048.
The result for I23Q reads -0.378 ± 0.044; that for I23C, -0.014 ± 0.035; that for I23Y, -0.447 ± 0.053.
On to I23W, for which the abundance fitness was -0.313 ± 0.033.
The result for K13M reads -0.103 ± 0.029; that for K13Y, -0.242 ± 0.056.
To K13C belongs -0.356 ± 0.041; to K13E, -0.352 ± 0.046.
The result for K13A reads -0.196 ± 0.03.
With D16V, the abundance fitness was -0.675 ± 0.032.
The result for D16F reads -0.512 ± 0.031.
To D16Q belongs -0.293 ± 0.042; to E29R, -0.025 ± 0.023; to E29T, -0.139 ± 0.037.
On to E29Q, for which the abundance fitness is -0.005 ± 0.035.
Take E29G: the abundance fitness was -0.04 ± 0.029.
As for E60S, the abundance fitness was -0.004 ± 0.026.
As for E60V, the abundance fitness is -0.439 ± 0.029.
